Assay results reported in doi:10.1101/2022.10.27.514150.

Molecular target: Gluc1-ΔN(1–433)
Experiment: split reporter

Chain of Gluc2-E2F4 FL (Q16254 whole entry): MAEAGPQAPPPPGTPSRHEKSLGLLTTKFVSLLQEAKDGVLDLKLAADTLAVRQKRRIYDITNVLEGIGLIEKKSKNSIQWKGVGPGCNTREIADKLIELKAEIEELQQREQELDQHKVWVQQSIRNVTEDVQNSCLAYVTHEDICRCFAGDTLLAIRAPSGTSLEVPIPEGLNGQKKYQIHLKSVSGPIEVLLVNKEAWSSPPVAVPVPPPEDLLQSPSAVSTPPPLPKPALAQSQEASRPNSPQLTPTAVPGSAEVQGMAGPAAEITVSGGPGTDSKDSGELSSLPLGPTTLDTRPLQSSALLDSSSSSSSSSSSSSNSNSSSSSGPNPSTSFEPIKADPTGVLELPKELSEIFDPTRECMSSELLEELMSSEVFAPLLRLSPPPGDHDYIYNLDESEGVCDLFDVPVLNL

A normalized luminescence ratio (NLR) greater than 20 was found for “Gluc2-E2F4 FL (from UniProt Q16254 1-413) (natural protein)” in this work.
